Reference: the supplement of paper PMC9170038

Test system: MS2 coat protein
Experiment: apparent KD of MS2 coat protein; designed switch direction (-1 OFF switch, 1 ON switch): 1; higher = weaker reporter binding
Method in brief: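 Stalled E. coli RNA polymerase transcribed designed RNA switches on Illumina chips, which were then titrated with SNAP-549-labelled MS2 coat protein, doubling from 0.7 or 1.5 nM to 3 µM. Steps lasted from 0.8–1.5 h at the lowest concentration to 10–20 min at the highest. The apparent KD is each design's median over clusters of curve-fitted normalised fluorescence.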

[1] = Eterna round: R95, input ligand: FMN 200 uM
[2] = Eterna round: R95, input ligand: microRNA oligo, concentration not stated
[3] = Eterna round: R95, input ligand: none
[4] = input ligand: microRNA oligo, concentration not stated

Sequence | apparent KD of MS2 coat protein [1] [nM] | apparent KD of MS2 coat protein [2] [nM] | apparent KD of MS2 coat protein [3] [nM] | apparent KD of MS2 coat protein (input ligand: FMN 200 uM) [nM] | apparent KD of MS2 coat protein [4] [nM] | apparent KD of MS2 coat protein (input ligand: none) [nM]
GGUCCGGCCUGAGCUGGACCGAAGCAUGUACAUGAGGAUCACCCAUGUUCAUGUGCAGGCUUUUUGCUCGUCUUGUG [JL-shm-2.05 JL mod] (puzzle: Sensor for hsa-mir-208a) | 91.7 | 12.7 | 106 | – | – | –
AUAAAACAUGAGGAUCACCCAUGUCAACAAAGUCGAGGAUAUGGGCAAAUUAAAUAAGAACCAGAAGGCGAAUAAU [salish99_ss1_r3_024] (puzzle: Same State 1) | 33.3 | 184 | 232 | – | – | –
GGGAGACAUGAGGAUCACCCAUGUGGGAGGGAACGAGGAUAUGUAAGGAGAGAGAAUAGAACAGAAGGCGUAGGUG [JR_SS1_Sub022] (puzzle: Same State 1) | 50 | 50 | 61.9 | – | – | –
GGAAAGAGGUCAGGAUAUGAAUGGUUGGGACAUGAGGAUCACCCAUGUAAUAGAAGAAAUCUACAUUAGAAGGGACAAGGAAGG [AK SSNG2-V2-5.1] (Eterna round: R96, puzzle: Same State NG 2) | – | – | – | 129 | 116 | 212
UGGUACAUGGGAGGAUAUGGAGUGAUGACAUGAGGAUCACCCAUGUUAUUUAUGCCGAGAGGCAACUAGAAGGCCCAUGUACCU [JL SSNG1 3.96] (Eterna round: R96, puzzle: Same State NG 2) | – | – | – | 16.7 | 40.8 | 52
ACAAGCUUUUUGCUCAUCUUAUGUCCGAAACAUGAGGAUCACCCAUGUAUAGAUUAUGUGUUGUUGUAGAUACAAGA [JR_SHM208A_Sub063] (puzzle: Sensor for hsa-mir-208a) | 22.7 | 19.6 | 28.3 | – | – | –
GUUAGGAAUCUAGCAUACAUGAGGAUCACCCAUGUUAGUGGGAAGGAUAUGGUACAGAAACUGUACCAGAAGGUCUUAUUGUUU [Omei SS(NG) 3 AV12] (Eterna round: R96, puzzle: Same State NG 3) | – | – | – | 210 | 348 | 408
UGUUGUAUUACAGGAUAUCUAUUGUUUUGAUUUAGAGAAGGGUAUUCACAUGAGGAUCACCCAUGUAUAUACGAGGAAGUUGUG [JMF's solution 77] (Eterna round: R96, puzzle: Same State NG 1) | – | – | – | 64.1 | 40.3 | 50.6
GGUCCAGCCUGAGCUGGACUACAGCAUGUACAUGAGGAUCACCCAUGUCAUGUACAUGUUUUUUGUUUGUCUUAAAA [Sensorship 9 - Jieux - Sensor for hsa-mir-208a] (puzzle: Sensor for hsa-mir-208a) | 69 | 70.1 | 99.4 | – | – | –
GUGGUCAGACAUGAGGAUCACCCAUGUGGAAUAAAUAAGGAGAAGGAUAUGCAAUAUAGGAUAUAGCAGAAGGUCUGGUUGGUG (Eterna round: R96, puzzle: Same State NG 3) | – | – | – | – | 58.5 | –
UUGAGAAAUUAAGGAUAUUGAGUACAUAUGUUUAACAUGAGGAUCACCCAUGUGGGUUGCGGUAUCGAGAAGGUAAAUUACUAG [Mat - same State NG 2 - JL mod - D72] (Eterna round: R96, puzzle: Same State NG 2) | – | – | – | 138 | 64.7 | 112
GCCGGACAUGAGGAUCACCCAUGUCCUCACUAUACAGGAUAUCGGGUAGGAUCCCUACGGCGAGAAGGGUAUAAAA [Inarquat] (puzzle: Same State 1) | 34.2 | 32.2 | 22.1 | – | – | –
UUAAUGAUGUAAGGAUAUACAUGAGGAUUUCUCGUAGAAGGUACAAGACAUGAGGAUCACCCAUGUGUCGCUCCGUAGAGCGUA [JL SSNG1 1.09] (Eterna round: R96, puzzle: Same State NG 1) | – | – | – | – | 132 | –
GCUAGGAAUUAAGCCAACAUGAGGAUCACCCAUGUAUGUUGGUAGGAUAUCGUUUGCUUUGCAAACGAGAAGGGCUAACCUAGC [JL SSNG3 1.25] (Eterna round: R96, puzzle: Same State NG 3) | – | – | – | 51 | 50.4 | 58.1
GGCGAACAGGCUAACAUGAGGAUCACCCAUGUGGACUCAUGGUAGGAUAUCGGGAAGGAGGAAACCGAGAAGGGCCGGUGAGCC [AK SSNG3-V2-48] (Eterna round: R96, puzzle: Same State NG 3) | – | – | – | 14.3 | 20 | 716
GUUAGGAAUCUAGCGAACAUGAGGAUCACCCAUGUUAGUGGGAAGGAUAUGGUACAGAAACUGUACCAGAAGGUCUUAUUGUUU [Omei SS(NG) 3 AV11] (Eterna round: R96, puzzle: Same State NG 3) | – | – | – | – | 332 | –

Sequence | apparent KD of MS2 coat protein [1] [nM] | apparent KD of MS2 coat protein [2] [nM] | apparent KD of MS2 coat protein [3] [nM] | apparent KD of MS2 coat protein (input ligand: FMN 200 uM) [nM] | apparent KD of MS2 coat protein [4] [nM] | apparent KD of MS2 coat protein (input ligand: none) [nM]
UUUAGUUGCGCGCAGGAUAUGUAUUAAUAUACAUGAGGAUCACCCAUGUGAGACCAAAUAGGUCUACAGAAGGGCGAAUCGCGAC [Laonerce - 29] (puzzle: Same State 2) | 29.4 | 234 | 715 | – | – | –
AAAGAAAACGCAGGAUAUACCCGGGAAACCGAGGUAGAAGGGUGAACCAAAACAAAACUAAAUAACAUGAGGAUCACCCAUGUC [Biarzara] (Eterna round: R96, puzzle: Same State NG 1) | – | – | – | 162 | 12.7 | 132
CGCCAAUUGGCACAGGAUAUGAGCAUGCUCACAUGAGGAUCACCCAUGUGAUUACCAACGCAAAAUCAGAAGGGUGCCCUCGUCA [Beanza] (Eterna round: R96, puzzle: Same State 2) | – | – | – | 80.6 | 99.1 | 164
UGGCUCAGAGCAGGAUAUAUGUAAUAACAUGAGGAUCACCCAUGUGUCGAGCUUCGGCUCGACACAUAGAAGGGCUCUGAGCCA [SSNG2/2-B2] (Eterna round: R96, puzzle: Same State NG 2) | – | – | – | 13.3 | 29.2 | 40.9
GUUACAUGAGGAUCACCCAUGUAUGUGUGGGAGUAAGUGUCUUAGGAUAUCUAGUAUUUAAUUCAAGAGAAGGAAGAUUGUUGU [JMF's solution 68] (Eterna round: R96, puzzle: Same State NG 3) | – | – | – | 118 | 132 | 122
CUUUAUCACUAUACAUGAGGAUCACCCAUGUUAUCAUCAUGAGAGGAUAUCGUAAUAGGAUUUUUCGAGAAGGCUCUAAAGUAU [JR_SSNG3_Sub078] (Eterna round: R96, puzzle: Same State NG 3) | – | – | – | 52.1 | 167 | 142
UAAAUAAUGAUAGGAUAUACAUGAGGAAUUCUCGUAGAAGGAUCAUGACAUGAGGAUCACCCAUGUAACGCUCGAAAGAGCGUA [Mat - Same State NG 1 - JL mod - D40] (Eterna round: R96, puzzle: Same State NG 1) | – | – | – | 556 | 205 | 585
UGUUAACAUGAGGAUCACCCAUGUCAAAUGAAUGAAGGAUAUGGAAAGUAAUAAGAUGAACUAGAAGGUCAAGAUG [Altered State 1-22 - Jieux - Same State 1] (puzzle: Same State 1) | 48.4 | 51.9 | 49.8 | – | – | –
GGAGCCGGCCUAGGAUAUUUCAUAUAAAAACAUGAGGAUCACCCAUGUAGGCCAGAAGGCCUUGGGAAGAAGGAGGUCGGCUCC [Loop Effect - U25] (Eterna round: R96, puzzle: Same State NG 2) | – | – | – | 12.4 | 27.2 | 30.1
CUGAGAAGUCAAGGAUAUCACGUCGAUUAGACGUGAGAAGGUGAUCAUUACAUGAGGAUCACCCAUGUGUUACAUGGAGCUCAG [Brourd's SSNG1/1-A2 mod 6] (Eterna round: R96, puzzle: Same State NG 1) | – | – | – | 703 | 124 | 938
GCGAAGAGGUAAGGAUAUGCAUGGCGUAGACAUGAGGAUCACCCAUGUAGGAGACGAAUUAGAAGGGAGAAGGUACCAGGACGC [AK SSNG2-V2-17.1] (Eterna round: R96, puzzle: Same State NG 2) | – | – | – | 939 | 699 | 746
GCUCGACGUGUUGUCUACAUGAGGAUCACCCAUGUAGGUGCGGAGGAUAUCUACGUGUUUCAUGUAGAGAAGGUCGUGUCGAGC [SameState NG3 #89] (Eterna round: R96, puzzle: Same State NG 3) | – | – | – | 40.2 | 55.3 | 73.3
UGCUAUUGUAUAUUGGUGCAAGCUUAUUGACAUGAGGAUCACCCAUGUACUCGUCUUAUGUGCAGUCCGUAGACUGC [JL-shm-2.25 Brourd mod] (puzzle: Sensor for hsa-mir-208a) | 72 | 13.9 | 78.7 | – | – | –
ACAUGAGAUGGAGGAUAUUUUGUACCUACAUGUGACAUGAGGAUCACCCAUGUGGUAAGUAUGAGAAAGAAGGCCAAGAUAUGU [Equivalence 17 - Jieux - Same State NG 2] (Eterna round: R96, puzzle: Same State NG 2) | – | – | – | 17.6 | 18.4 | 28.5
UUUAGUUGCGGGCAGGAUAUGUAUUAAAGUACAUGAGGAUCACCCAUGUGCGGGUAUAACACCCGACAGAAGGGCCAAUCGCGAC [Laonerce - 1] (puzzle: Same State 2) | 17.7 | 64.3 | 115 | – | – | –
